B1: LINE1-full (parent)
chain: UACGUAGGUGGUUUUCCCCUGAUAGUGCUAAGGGGGCCUGGAAGUUUGGACUGGGCAGAGCUCAACACAGCGUGGCAAAGUGGCUGUGGCUAGACUGCCUCUCUGGAUUCCUCGUCACUCAGCAGGGCAUCUCUGAGAGAAAUGCC

This is an account of results in the RNAGym collection of RNA variant scans (doi:10.7554/elife.90254).

In this data set the parent is B1. Nature of the data set: self-cleavage, relative activity (ratio to wild type); higher = more cleavage; in vitro, sequencing; the parent is a self-cleaving ribozyme.
In the case of U15C C66U, the self-cleavage came to 0.04.

Take U15C A30U: the self-cleavage turned out to be 0.5.

With C18A G36A, the self-cleavage came to 1.12.

As to U15C U81G, the self-cleavage came to 1.89.

In the case of U15C A78G, the self-cleavage amounted to 1.34.

U15C A78U: the self-cleavage came out at 2.44.

Take C16A C38U: the self-cleavage was 1.45.

As for U15A A31U, the self-cleavage came to 1.05.

For the variant U15A A31G, the self-cleavage is 0.55.

On to U15C G70A, for which the self-cleavage came to 0.33.

In the case of C17A U132A, the self-cleavage was determined as 1.17.

Consider C17U A140G, for which the self-cleavage worked out at 1.02.

As for C18U U109A, the self-cleavage was 0.9.

As for U15C A77C, the self-cleavage was 0.77.

For U15C A77G, the self-cleavage amounted to 1.55.

As for U15C A77U, the self-cleavage was 1.39.

As for C17A U45C, the self-cleavage stood at 1.35.

Turning to C17U A138C, the self-cleavage came out at 1.12.

In the case of U15A G21A, the self-cleavage amounted to 1.15.

For the variant C17A U134C, the self-cleavage turned out to be 1.11.

In the case of U15C G82A, the self-cleavage worked out at 1.92.

Regarding U15C G82U, the self-cleavage is 1.9.

With U15C C61U, the self-cleavage stood at 0.05.

Take U15C A22G: the self-cleavage was found to be 1.24.

Take C17G U52C: the self-cleavage was found to be 1.22.

For U15A G48C, the self-cleavage worked out at 0.71.

Regarding U15G A129G, the self-cleavage is 0.61.

With C17U A94U, the self-cleavage was 0.17.

On to C17U A94G, for which the self-cleavage worked out at 0.31.

Regarding C18U U52A, the self-cleavage stood at 1.54.

Turning to U15G U115C, the self-cleavage is 0.84.

Regarding U15C A136U, the self-cleavage stood at 1.41.

Turning to C16U A121U, the self-cleavage stood at 1.36.

With U15A G40A, the self-cleavage came out at 1.24.

Turning to C18U A129U, the self-cleavage amounted to 0.56.

As for C18A U115G, the self-cleavage came out at 0.99.

Regarding C16U U39C, the self-cleavage stood at 1.35.

U15C A142G: the self-cleavage was determined as 1.41.

For the variant U15C A142C, the self-cleavage was determined as 1.8.

With C18A A57G, the self-cleavage was determined as 1.29.

For the variant C18U A67G, the self-cleavage stood at 0.44.

Take C18A A129G: the self-cleavage was determined as 1.42.

As to U15G A78G, the self-cleavage was 0.

Turning to C19A U102C, the self-cleavage was 1.76.

With U15C U87A, the self-cleavage came to 0.1.

U15C G122A: the self-cleavage is 1.66.

For U15C G122U, the self-cleavage amounted to 1.16.

As for C18U C113U, the self-cleavage was 0.75.

For C16U U100C, the self-cleavage was 1.02.

As to C19A U91C, the self-cleavage was determined as 0.46.

U15A U73A: the self-cleavage amounted to 1.02.

With U15C U119C, the self-cleavage worked out at 1.75.

As for C18U A142G, the self-cleavage turned out to be 1.27.

For C18U G139U, the self-cleavage is 1.11.

For the variant U15A A142G, the self-cleavage is 1.13.

In the case of U15A A43G, the self-cleavage is 0.97.

In the case of U15A A43U, the self-cleavage came out at 0.87.

U15C U26A: the self-cleavage turned out to be 1.16.

For the variant U15C G34C, the self-cleavage worked out at 1.59.

Consider U15C A59U, for which the self-cleavage was 0.94.

As to U15C A59G, the self-cleavage stood at 0.1.

In the case of C17A G70U, the self-cleavage was 0.13.

Regarding U15C U46C, the self-cleavage turned out to be 1.31.

As for U15A U46G, the self-cleavage was found to be 0.85.

Take U15A U29C: the self-cleavage worked out at 2.9.

On to U15A U20G, for which the self-cleavage stood at 0.68.

U15A A42G: the self-cleavage was found to be 1.31.

Take C18A G34A: the self-cleavage was found to be 1.01.

Take C16U U104A: the self-cleavage stood at 1.12.

On to U15C A64C, for which the self-cleavage was 0.64.

Take U15C A64G: the self-cleavage came to 0.36.

Consider U15G A50G, for which the self-cleavage was 0.18.

As for C19A A142U, the self-cleavage turned out to be 1.36.

With C16U A140G, the self-cleavage worked out at 0.99.

Take U15C G114A: the self-cleavage was found to be 0.71.

For the variant U15C G114C, the self-cleavage worked out at 1.59.

In the case of C17A A142C, the self-cleavage is 1.9.

Consider U15A A30G, for which the self-cleavage is 1.16.

For C18U U115C, the self-cleavage stood at 1.49.

As for C17U A124G, the self-cleavage amounted to 0.47.

For the variant C18A U46C, the self-cleavage amounted to 1.65.

C16A A107G: the self-cleavage came to 0.87.

Take U15C A124U: the self-cleavage came out at 1.32.

As for U15C A124C, the self-cleavage is 0.86.

As for U15C A124G, the self-cleavage was found to be 1.39.

As to U14G U85C, the self-cleavage came out at 0.92.

Take C16A A79G: the self-cleavage turned out to be 0.62.

Take U15C U130G: the self-cleavage turned out to be 1.49.

With U15C U130A, the self-cleavage was 1.

As to C18U U87A, the self-cleavage worked out at 0.08.

As for C18A A69C, the self-cleavage was 0.13.

As to C18U U85C, the self-cleavage was determined as 0.12.

On to U15A A50U, for which the self-cleavage came to 1.43.

U15A A50G: the self-cleavage worked out at 0.67.

On to C16U U119A, for which the self-cleavage was 1.17.

Regarding U15A U134C, the self-cleavage was determined as 1.19.

As for U15A G114U, the self-cleavage came out at 0.97.

For U15C C133A, the self-cleavage came to 1.27.

With U15C C133U, the self-cleavage was found to be 1.51.

For U15C A141U, the self-cleavage stood at 1.58.

With C16U U52C, the self-cleavage was 1.47.

Take U15C A92U: the self-cleavage came to 0.79.

With C17G U143C, the self-cleavage came to 1.09.

Regarding C16U U143A, the self-cleavage amounted to 0.86.

On to U15C U73G, for which the self-cleavage came to 1.18.

As for U15A G53U, the self-cleavage was 0.72.

For the variant U15C C51A, the self-cleavage stood at 1.37.

Regarding U15C U45C, the self-cleavage was determined as 1.55.

As for U15C U45A, the self-cleavage is 1.49.

Turning to U15C U45G, the self-cleavage worked out at 1.2.

For U15A U115C, the self-cleavage turned out to be 1.09.

Consider U15A C146U, for which the self-cleavage stood at 0.88.

For the variant U15A C101G, the self-cleavage stood at 0.84.

Turning to U15G A94U, the self-cleavage was 0.58.

As to U15A U130C, the self-cleavage turned out to be 0.67.

As to U15C U109C, the self-cleavage is 1.43.

U15C U109A: the self-cleavage was determined as 1.41.

For the variant U15C U109G, the self-cleavage is 0.84.

U15C A140U: the self-cleavage is 1.61.

For U15A A94U, the self-cleavage came to 0.25.

Regarding U15A A94G, the self-cleavage came to 0.19.

For C18U A69G, the self-cleavage is 0.29.

In the case of U15C U62C, the self-cleavage stood at 0.09.

Regarding U15C U62A, the self-cleavage came out at 0.07.

C17U U132C: the self-cleavage came to 0.95.

With U15C U115G, the self-cleavage came to 1.07.

On to U15C U115A, for which the self-cleavage came to 1.59.

As for C18A G88U, the self-cleavage was determined as 0.12.

On to C16U A142G, for which the self-cleavage was 0.96.

Consider C19A A57G, for which the self-cleavage amounted to 1.11.

For C18U U62C, the self-cleavage amounted to 0.08.

Take U15G A43G: the self-cleavage amounted to 0.5.

Consider U15C A69U, for which the self-cleavage is 0.09.

Take C16A G32A: the self-cleavage was 0.77.

With U15C A138C, the self-cleavage is 1.59.

Take U15C A138G: the self-cleavage turned out to be 1.49.

For the variant U15C A138U, the self-cleavage came to 1.86.

On to C17U U143G, for which the self-cleavage turned out to be 1.43.

As for C16A A124G, the self-cleavage was 0.4.

C19A A107G: the self-cleavage came out at 1.

Turning to U15C A67G, the self-cleavage worked out at 0.44.

In the case of U15C C128U, the self-cleavage amounted to 1.1.

With U15C G144A, the self-cleavage amounted to 1.04.

For the variant U15C U29C, the self-cleavage stood at 1.28.

For U15C U29A, the self-cleavage came out at 1.27.

For U15A G32A, the self-cleavage turned out to be 0.66.

On to U15A U102A, for which the self-cleavage was determined as 1.05.

With U15A U102C, the self-cleavage stood at 1.15.

As for C18A U73C, the self-cleavage is 1.23.

Consider U15C C17U, for which the self-cleavage was 1.03.

Consider U15C C17G, for which the self-cleavage was 1.13.

For C16A A141G, the self-cleavage amounted to 1.35.

C18A A94G: the self-cleavage came out at 0.22.

As for U15A U47C, the self-cleavage turned out to be 0.9.

As to C18U U39C, the self-cleavage worked out at 0.82.

As to U15G A69G, the self-cleavage worked out at 0.95.

Consider C16U U108A, for which the self-cleavage came out at 1.14.

Regarding U14G U115C, the self-cleavage worked out at 0.79.

On to U15C A57U, for which the self-cleavage turned out to be 0.11.

Take U15C A57G: the self-cleavage was 1.06.

On to U15C A57C, for which the self-cleavage came to 0.09.

For the variant U15C U23C, the self-cleavage was found to be 0.94.

Turning to C17A A59U, the self-cleavage came out at 0.69.

For the variant C16A U96G, the self-cleavage amounted to 0.08.

Take C16A U96C: the self-cleavage came out at 0.04.

Consider U15A A78G, for which the self-cleavage stood at 0.99.

As to U15C C146U, the self-cleavage stood at 1.57.
